The target in data set [1] is T1, fibrinogen (Homo sapiens, UniProt P02671+P02675+P02679).
T1 sequence (P02671 20-629 limits assumed): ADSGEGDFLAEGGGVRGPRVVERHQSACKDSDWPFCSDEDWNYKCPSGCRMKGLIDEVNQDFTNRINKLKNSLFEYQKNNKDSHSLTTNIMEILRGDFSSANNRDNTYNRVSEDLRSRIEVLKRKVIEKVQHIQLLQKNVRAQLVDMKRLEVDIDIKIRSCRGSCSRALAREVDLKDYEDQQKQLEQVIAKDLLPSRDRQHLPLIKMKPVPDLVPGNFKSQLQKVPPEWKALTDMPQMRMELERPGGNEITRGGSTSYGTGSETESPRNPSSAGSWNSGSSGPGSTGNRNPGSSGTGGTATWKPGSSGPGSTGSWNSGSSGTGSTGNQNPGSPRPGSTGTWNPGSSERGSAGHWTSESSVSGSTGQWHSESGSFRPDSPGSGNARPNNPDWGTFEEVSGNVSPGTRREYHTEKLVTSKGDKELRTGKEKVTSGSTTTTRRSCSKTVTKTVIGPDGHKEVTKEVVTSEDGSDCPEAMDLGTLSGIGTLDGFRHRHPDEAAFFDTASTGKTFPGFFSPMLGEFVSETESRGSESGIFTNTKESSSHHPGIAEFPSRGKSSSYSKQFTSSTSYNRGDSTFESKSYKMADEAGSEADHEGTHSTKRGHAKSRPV
T1 sequence (P02675 31-491): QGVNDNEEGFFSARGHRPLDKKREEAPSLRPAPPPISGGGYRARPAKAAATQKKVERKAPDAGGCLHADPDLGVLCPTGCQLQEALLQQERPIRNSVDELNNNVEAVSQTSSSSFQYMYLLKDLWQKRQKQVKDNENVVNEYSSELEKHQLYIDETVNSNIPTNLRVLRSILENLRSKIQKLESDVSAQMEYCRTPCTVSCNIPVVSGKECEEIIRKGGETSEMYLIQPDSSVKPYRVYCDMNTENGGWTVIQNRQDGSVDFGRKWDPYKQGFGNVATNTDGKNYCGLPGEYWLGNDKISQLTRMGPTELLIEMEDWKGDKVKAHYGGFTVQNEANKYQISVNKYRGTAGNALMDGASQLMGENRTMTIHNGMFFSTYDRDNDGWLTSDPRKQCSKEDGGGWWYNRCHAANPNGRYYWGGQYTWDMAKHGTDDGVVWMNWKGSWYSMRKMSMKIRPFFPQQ
T1 sequence (P02679 27-433 limits assumed): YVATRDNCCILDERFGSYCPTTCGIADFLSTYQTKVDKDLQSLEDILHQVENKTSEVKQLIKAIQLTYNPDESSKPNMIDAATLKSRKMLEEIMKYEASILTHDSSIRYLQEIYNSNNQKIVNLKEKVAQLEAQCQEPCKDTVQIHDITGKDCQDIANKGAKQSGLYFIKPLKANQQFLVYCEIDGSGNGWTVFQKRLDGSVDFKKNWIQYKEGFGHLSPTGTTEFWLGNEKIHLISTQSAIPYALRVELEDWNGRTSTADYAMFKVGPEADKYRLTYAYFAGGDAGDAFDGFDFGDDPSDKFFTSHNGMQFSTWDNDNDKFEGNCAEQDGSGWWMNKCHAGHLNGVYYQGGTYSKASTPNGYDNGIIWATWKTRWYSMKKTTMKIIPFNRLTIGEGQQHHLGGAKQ
As to the kind of experiment: Fibrinogen binding assay by ELISA. Particulars: plate coated with 1 mg/ml fibrinogen, various concentrations, anti-His6-peroxidase detection. On the procedure:
(§1) A polystyrene 96-well plate (Nunc® Maxisorp EUSA-plates) was coated with 1 mg/ml fibrinogen (Tisseel®, Baxter AG, Vienna) overnight at 4° C. and then blocked with blocking solution (PBS+1% BSA) for 2 hours at room temperature CRT). After washing three times with PBS, purified peptides were added in various dilutions to the plate and incubated for 1 hour at RT. After the three times washing with PBS, a monoclonal anti-His6-peroxidase antibody (Sigma-Aldrich, Vienna), diluted in PBS+0.1% Tween (Sigma-Aldrich, Vienna) was added and incubated for 1 hour at RT. Finally, the plate was washed three times with PBS again and wells were incubated with o-phenylenediaminehydrochlorid substrate. Absorbance was measured at 492 nm and 620 nm. For fibrin binding analysis, the plate was first coated with fibrinogen overnight at 4° C. and then incubated with 10 I.U./ml thrombin (Tisseel, Baxter AG, Vienna) for 30 minutes at 37° C. The following procedure was the same as described above. For the surface plasmon resonance (SPR) method fibrinogen was coupled to a gold sensor chip (10% COOH—(PEG)6-C11—SH, 90% OH(PEG)3-C11—SH; Reichert Analytical, NY, USA) by amine chemistry using EDC (1-ethyl-3-[3-dimethylaminopropyl]carbodiimide hydrochloride) and NHS (N-hydroxysuccinimide) (Pierce, Ill., USA). Uncoupled sites on the gold sensor chip were blocked with 1 M ethanolamine pH 8.5 (Sigma-Aldrich, MO, USA). The purified recombinant proteins and peptides were passed over the chip's surface at a flow rate of 0.4 ml/min to 0.8 ml/min and allowed to interact. The signals were detected and recorded at the Reichert SR7000 Surface Plasmon Resonance Analytical Instrument (Reichert Analytical, NY, USA). After each measurement the sensor chip surface was regenerated by a pulse with 100 mM phosphoric acid (Mallinckrodt Chemicals, NJ, USA) after each application of the samples. Association and dissociation signals were fitted to one association curve using a prism software calculation program.
Purified, proteins and peptides in different concentrations were used for testing the binding affinity to fibrinogen and fibrin (FIG. 5).

For data set [2], the target named is T1, fibrinogen. As to the kind of experiment: Surface plasmon resonance (SPR) binding to fibrinogen coupled to gold sensor chip. Particulars: fibrinogen on sensor chip; fitted association curves. On the procedure:
as §1
On the technique in general: SPR reads the build-up and loss of mass on a sensor chip optically.

Data set [3] relates to mouse myoblast cell line (C2C12). As to the kind of experiment: Biological activity: viability (MTT) assay of mouse myoblast C2C12 cells. The data set is classed as cell-based. The method, then: A moose myoblast cell line (C2C12; ECACC (Sigma-Aldrich, Vienna)) was grown in Dulbecco's Modified Eagle Medium (DMEM) with 10% fetal calf serum (FCS). At 50-60% confluence cells were trypsinized and transferred to a 24-well plate (1×10^4/well).
Following a 48-hour-culture period at 37° C., cells were washed with DMEM only and then covered with medium (DMEM+1% FCS) containing various concentrations of hFGF-2 or hFGF-2 peptides. After 48 hours number of viable cells was determined by adding 3-(4,5-dimethylthiazol-2-yl)-2,5-diphenyltetrazolium bromide (MTT, Sigma-Aldrich, Vienna) as previously described {M05}.

For data set [4] the following is noted: 146 amino acid variant; cited from earlier work.

Entries after “also recorded” stand apart in the source; their conditions may differ. Ends that are not written are not given here.

As for “EERGVVSIKGVCANRYLAMKEDGRLLASKCVTDECFFFERLESNNYNTYRSR (EERGVVSIKGVCANRYLAMKEDGRLLASKCVTDECFFFERLESNNYNTYRSR; not fully specified (C-terminus); cysteine pairing not given here) [pep1, recombinant truncated hFGF-2 peptide (68 aa) with C-terminal 6x HIS-tag, expressed as GST fusion in E. coli and cleaved]”, in the data set with fibrinogen [1], the “binding affinity to fibrinogen” value is reported as “high affinity”. In addition, in the data set with fibrinogen [2], the “binding signal (SPR)” value is “weak and short binding signals”.

For the substance “GVCANRYLAMKEDGRLLASKCVTDECFFFERLESNNYNTYRSR (GVCANRYLAMKEDGRLLASKCVTDECFFFERLESNNYNTYRSR; not fully specified (C-terminus); cysteine pairing not given here) [pep2, recombinant truncated hFGF-2 peptide (48 aa) with C-terminal 6x HIS-tag, ~5.2 kD]”, in the data set with fibrinogen [1], the “binding affinity to fibrinogen” value is given as “high affinity”. The “binding signal (SPR)” value in the data set with fibrinogen [2] was “weak and short binding signals”. Also, the “activity retained relative to the full length protein” value in data set [3] (relative to full length hFGF-2) is reported as “approximately 50%”.

In the case of “Human Fibroblast growth factor-2 [hFGF-2, reference compound]”, the “binding affinity to fibrinogen” value with fibrinogen [1] is reported as “high affinity”. For the same substance, the “proliferative activity / cell growth effect” value in data set [3] (48 hours, DMEM+1% FCS, MTT) is “highest proliferative activity; also recorded: highest cell growth effect”. Also, the “concentration dependence of biological activity” value in data set [3] (various concentrations) is reported as “concentration dependent biological activity”. Further, the isoelectric point in data set [4] is given as 9.6.
